Measured values from US20260209387A1, “SINGLE-DOMAIN ANTIBODY FOR INHIBITION OF NEUTROPHIL ELASTASE ACTIVITY” (UNIVERSITE DE LIEGE, priority 2023, published 2026).

Experiments:
[1] = system: mouse pancreatic elastase (mPE); experiment: BLI binding to other serine proteases: mPE; settings: 50 nM protease
Method: The specificity of NbE201 for hNE was also investigated by BLI. Biotinylated NbE201 (10 μg/mL) was immobilized on streptavidin biosensors (SA, Sartorius) following provider's indications. The biosensors were then immersed in a 50 nM solution of a serine protease. The proteases tested were human cathepsin G (hCG), human proteinase 3 (hPR3), mouse pancreatic elastase (mPE), mouse neutrophil elastase (mNE) and porcine pancreatic elastase (pPE). hNE was used a positive control. The association and dissociation were measured for 70 s and 320 s respectively, in kinetic buffer (KB, Sartorius). The experiments were carried out at 30° C. in 384-wells black-bottom microplates in polypropylene (Greiner Bio-One, Belgium) and with orbital agitation (1000 rpm).

[2] = target: T1, mNE (Mus musculus, UniProt Q3UP87); experiment: Affinity of NbE201 for mNE by BLI; type: binding
T1 sequence (Q3UP87 27-265): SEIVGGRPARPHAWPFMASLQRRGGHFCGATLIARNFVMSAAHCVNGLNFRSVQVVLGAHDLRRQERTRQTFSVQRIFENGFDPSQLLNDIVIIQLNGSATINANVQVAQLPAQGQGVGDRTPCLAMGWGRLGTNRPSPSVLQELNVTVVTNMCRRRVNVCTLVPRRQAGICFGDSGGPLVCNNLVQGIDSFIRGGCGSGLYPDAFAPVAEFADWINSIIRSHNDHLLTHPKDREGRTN
Method: For mNE, NbE201_Cter Biot was immobilized on SA biosensors (Sartorius) via the C-terminal biotin following the provider's indications. Then, the biosensors were immersed in a solution of mNE at different concentrations (100-50-25-12.5-6.25-3.125 nM). Association and dissociation kinetics were measured for 300 s and 600 s respectively. All the experiments (for both hNE and mNE) were carried out at 30° C. in 384-wells black-bottom microplates in polypropylene (Greiner Bio-One, Belgium) and with orbital agitation (1000 rpm). The obtained sensorgrams were fitted to a 1:1 model by using the Data Analysis Octet Software Version 10.0 (Sartorius) to derive the rate constants for association (kon) and dissociation (koff) and the equilibrium dissociation constant (KD-koff/kon).

B1: NbE201: anti-hNE ISVD (VHH/nanobody) from immunized lama, amino acid sequence SEQ ID NO: 4 (protein)
VHH: QVQLQESGGGLVQAGGSLRLSCVVPGRTISLYRMGWFRQAPGKEREFVAGINWSGDMTDYVDSVKGRFTISRDNAKNTVYLEMNSLKPEDTAIYYCTADPKLLPLADSSYGYWGQGTQVTVSS
**Q.** Which results are given for B1?
**A.** binding to mPE by BLI [1]: does not bind to the other proteases; koff [2]: 0.019 s⁻¹; kon [2]: 390000 M⁻¹ s⁻¹
